Measurements taken from the supplement of paper PMC5998384.

Experiments:
[1] = tested on: HeLa Kyoto; test: melting temperature (median over replicates), in situ; higher = more thermally stable
[2] = tested on: HeLa Kyoto; test: solubility in G1/S (NP-40 vs SDS abundance) (log2 ratio); higher = more soluble; conditions: cell cycle stage: G1/S
[3] = tested on: HeLa Kyoto; test: thermal stability score vs G1/S (z-score of summed log2 fold changes over temperatures); higher = more thermally stable than in G1/S
[4] = tested on: HeLa Kyoto; test: solubility change mitosis vs G1/S (difference of NP-40 vs SDS log2 ratios) (log2 ratio difference); higher = more soluble in mitosis
[5] = cell cycle stage: early G1 (4.5 h after nocodazole release)
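For melting temperature (median over replicates), in situ in this document: HeLa Kyoto cells synchronized by double thymidine or nocodazole block, proteins quantified by TMT10plex mass spectrometry, three independent biological replicates.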
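For solubility change mitosis vs G1/S (difference of NP-40 vs SDS log2 ratios) in this document: synchronized HeLa Kyoto cells (double thymidine block for G1/S, nocodazole release for mitosis), protein amounts in NP-40 versus SDS lysates quantified by mass spectrometry, three biological replicates.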
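For solubility in G1/S (NP-40 vs SDS abundance) in this document: HeLa Kyoto cells arrested at G1/S by double thymidine block, proteins quantified by TMT10plex mass spectrometry in mild NP-40 versus SDS extracts, three biological replicates.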
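For thermal stability score vs G1/S (z-score of summed log2 fold changes over temperatures) in this document: synchronized HeLa Kyoto cells, proteins quantified by TMT10plex mass spectrometry, three biological replicates, mitosis taken 0.5 h after nocodazole release, G1/S directly after double thymidine block.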

ASCC1
melting temperature ([1]; cell cycle stage: G1/S): 50.3 °C | melting temperature ([1]; cell cycle stage: mitosis): 50.7 °C | solubility in G1/S (log2) [2]: -0.115 | thermal stability score [3, 5]: 1.88 | thermal stability score ([3]; cell cycle stage: mitosis): 1.1 | solubility change mitosis (log2) [4]: 0.0348

MATYTCITCRVAFRDADMQRAHYKTDWHRYNLRRKVASMAPVTAEGFQERVRAQRAVAEEESKGSATYCTVCSKKFASFNAYENHLKSRRHVELEKKAVQAVNRKVEMMNEKNLEKGLGVDSVDKDAMNAAIQQAIKAQPSMSPKKAPPAPAKEARNVVAVGTGGRGTHDRDPSEKPPRLQWFEQQAKKLAKQQEEDSEEEEEDLDGDDWEDIDSDEELECEDTEAMDDVVEQDAEEEEAEEGPPLGAIPITDCLFCSHHSSSLMKNVAHMTKDHSFFIPDIEYLSDIKGLIKYLGEKVGVGKICLWCNEKGKSFYSTEAVQAHMNDKSHCKLFTDGDAALEFADFYDFRSSYPDHKEGEDPNKAEELPSEKNLEYDDETMELILPSGARVGHRSLMRYYKQRFGLSRAVAVAKNRKAVGRVLQQYRALGWTGSTGAALMRERDMQYVQRMKSKWMLKTGMKNNATKQMHFRVQVRF [ZNF622]
melting temperature ([1]; cell cycle stage: G1/S): 53.3 °C | melting temperature ([1]; cell cycle stage: mitosis): 53.7 °C | solubility in G1/S (log2) [2]: -0.924 | thermal stability score [3, 5]: -2.54 | thermal stability score ([3]; cell cycle stage: mitosis): -0.435 | solubility change mitosis (log2) [4]: 0.0193

MRRLNRKKTLSLVKELDAFPKVPESYVETSASGGTVSLIAFTTMALLTIMEFSVYQDTWMKYEYEVDKDFSSKLRINIDITVAMKCQYVGADVLDLAETMVASADGLVYEPTVFDLSPQQKEWQRMLQLIQSRLQEEHSLQDVIFKSAFKSTSTALPPREDDSSQSPNACRIHGHLYVNKVAGNFHITVGKAIPHPRGHAHLAALVNHESYNFSHRIDHLSFGELVPAIINPLDGTEKIAIDHNQMFQYFITVVPTKLHTYKISADTHQFSVTERERIINHAAGSHGVSGIFMKYDLSSLMVTVTEEHMPFWQFFVRLCGIVGGIFSTTGMLHGIGKFIVEIICCRFRLGSYKPVNSVPFEDGHTDNHLPLLENNTH [ERGIC2]
melting temperature ([1]; cell cycle stage: G1/S): 54.8 °C | melting temperature ([1]; cell cycle stage: mitosis): 53.8 °C | solubility in G1/S (log2) [2]: -0.0386 | thermal stability score [3, 5]: -2.27 | thermal stability score ([3]; cell cycle stage: mitosis): -7.02 | solubility change mitosis (log2) [4]: -0.216

DNAJC21
melting temperature ([1]; cell cycle stage: G1/S): 50.7 °C | melting temperature ([1]; cell cycle stage: mitosis): 49.9 °C | solubility in G1/S (log2) [2]: -0.451 | thermal stability score [3, 5]: 2.06 | thermal stability score ([3]; cell cycle stage: mitosis): 1.36 | solubility change mitosis (log2) [4]: 0.168

MSNRVVCREASHAGSWYTASGPQLNAQLEGWLSQVQSTKRPARAIIAPHAGYTYCGSCAAHAYKQVDPSITRRIFILGPSHHVPLSRCALSSVDIYRTPLYDLRIDQKIYGELWKTGMFERMSLQTDEDEHSIEMHLPYTAKAMESHKDEFTIIPVLVGALSESKEQEFGKLFSKYLADPSNLFVVSSDFCHWGQRFRYSYYDESQGEIYRSIEHLDKMGMSIIEQLDPVSFSNYLKKYHNTICGRHPIGVLLNAITELQKNGMNMSFSFLNYAQSSQCRNWQDSSVSYAAGALTVH [MEMO1]
melting temperature ([1]; cell cycle stage: G1/S): 53.7 °C | melting temperature ([1]; cell cycle stage: mitosis): 54.2 °C | solubility in G1/S (log2) [2]: 0.029 | thermal stability score [3, 5]: -0.361 | thermal stability score ([3]; cell cycle stage: mitosis): -0.452 | solubility change mitosis (log2) [4]: -0.0409

MAAEAADLGLGAAVPVELRRERRMVCVEYPGVVRDVAKMLPTLGGEEGVSRIYADPTKRLELYFRPKDPYCHPVCANRFSTSSLLLRIRKRTRRQKGVLGTEAHSEVTFDMEILGIISTIYKFQGMSDFQYLAVHTEAGGKHTSMYDKVLMLRPEKEAFFHQELPLYIPPPIFSRLDAPVDYFYRPETQHREGYNNPPISGENLIGLSRARRPHNAIFVNFEDEEVPKQPLEAAAQTWRRVCTNPVDRKVEEELRKLFDIRPIWSRNAVKANISVHPDKLKVLLPFIAYYMITGPWRSLWIRFGYDPRKNPDAKIYQVLDFRIRCGMKHGYAPSDLPVKAKRSTYNYSLPITVKKTSSQLVTMHDLKQGLGPSGTSGARKPASSKYKLKDSVYIFREGALPPYRQMFYQLCDLNVEELQKIIHRNDGAENSCTERDGWCLPKTSDELRDTMSLMIRQTIRSKRPALFSSSAKADGGKEQLTYESGEDEEDEEEEEEEEEDFKPSDGSENEMETEILDYV [GTF3C5]
melting temperature ([1]; cell cycle stage: G1/S): 47.8 °C | melting temperature ([1]; cell cycle stage: mitosis): 49.4 °C | solubility in G1/S (log2) [2]: -0.0747 | thermal stability score [3, 5]: 2.34 | thermal stability score ([3]; cell cycle stage: mitosis): 4.79 | solubility change mitosis (log2) [4]: -0.0211

MASKEMFEDTVEERVINEEYKIWKKNTPFLYDLVMTHALQWPSLTVQWLPEVTKPEGKDYALHWLVLGTHTSDEQNHLVVARVHIPNDDAQFDASHCDSDKGEFGGFGSVTGKIECEIKINHEGEVNRARYMPQNPHIIATKTPSSDVLVFDYTKHPAKPDPSGECNPDLRLRGHQKEGYGLSWNSNLSGHLLSASDDHTVCLWDINAGPKEGKIVDAKAIFTGHSAVVEDVAWHLLHESLFGSVADDQKLMIWDTRSNTTSKPSHLVDAHTAEVNCLSFNPYSEFILATGSADKTVALWDLRNLKLKLHTFESHKDEIFQVHWSPHNETILASSGTDRRLNVWDLSKIGEEQSAEDAEDGPPELLFIHGGHTAKISDFSWNPNEPWVICSVSEDNIMQIWQMAENIYNDEESDVTTSELEGQGS [RBBP7]
melting temperature ([1]; cell cycle stage: G1/S): 53 °C | melting temperature ([1]; cell cycle stage: mitosis): 53.3 °C | solubility in G1/S (log2) [2]: 0.0292 | thermal stability score [3, 5]: -0.845 | thermal stability score ([3]; cell cycle stage: mitosis): -1.83 | solubility change mitosis (log2) [4]: -0.157
